We go through one molecule from patent US20190185532A1 (UNIVERSITY OF BIRMINGHAM, published 2019).

In assay [1] the target is T1, MMRN2^EMI-CC (EMI and coiled-coil domains of human MMRN2, His tag) (human, UniProt Q9H8L6 23-820).
T1 construct: domain: EMI and coiled-coil; HEK293T lysate, blotted under reducing conditions; not shown: C-terminal BirA and His tags of vector pHL-Avitag3
T1 sequence (looked up): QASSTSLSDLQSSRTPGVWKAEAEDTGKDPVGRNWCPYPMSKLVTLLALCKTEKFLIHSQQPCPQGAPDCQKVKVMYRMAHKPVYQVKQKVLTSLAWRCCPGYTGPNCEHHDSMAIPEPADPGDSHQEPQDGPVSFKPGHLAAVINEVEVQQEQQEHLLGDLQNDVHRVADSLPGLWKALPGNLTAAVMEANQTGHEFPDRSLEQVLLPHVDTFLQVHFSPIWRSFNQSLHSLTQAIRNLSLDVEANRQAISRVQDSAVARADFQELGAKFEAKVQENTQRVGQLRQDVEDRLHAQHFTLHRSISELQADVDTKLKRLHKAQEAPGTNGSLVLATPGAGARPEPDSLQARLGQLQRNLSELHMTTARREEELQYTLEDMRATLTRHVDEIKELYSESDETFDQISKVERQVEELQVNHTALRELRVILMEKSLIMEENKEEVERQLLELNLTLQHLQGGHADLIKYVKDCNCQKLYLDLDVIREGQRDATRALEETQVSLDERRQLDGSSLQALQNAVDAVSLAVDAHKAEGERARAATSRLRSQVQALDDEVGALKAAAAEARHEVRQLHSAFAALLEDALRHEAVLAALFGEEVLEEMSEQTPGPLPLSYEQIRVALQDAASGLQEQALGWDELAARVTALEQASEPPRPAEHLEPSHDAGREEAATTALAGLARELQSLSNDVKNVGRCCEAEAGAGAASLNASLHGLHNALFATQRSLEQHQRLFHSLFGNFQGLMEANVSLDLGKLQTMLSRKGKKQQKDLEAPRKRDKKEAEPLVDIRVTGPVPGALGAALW
Kind of assay: far western blot, reduced; HEK293T lysates of His-tagged MMRN2 constructs probed with CLEC14A-ECD-Fc. The text has this:
(§1) FIG. 2. […] (A) Diagrams of MMRN2 truncation mutants, showing the elastin microfibril interface (EMI) domain, coiled-coil (CC) domain and complement related C1q domain. The minimal CLEC14A binding fragment is highlighted in black. (B,C) HEK293T were transfected with truncation mutants. Lysates were far western blotted under reduced conditions with CLEC14A extracellular domain fused to an Fc tag (CLEC14A-ECD-Fc) and western blotted by use of His tag antibodies. (B) The smallest binding fragment was identified as MMRN2⁴⁸⁷⁻⁸²⁰, MMRN2^FL fails to bind CLEC14A-ECD-Fc. (C) The smallest MMRN2 fragment binding CLEC14A is MMRN2⁵³⁰⁻⁶²⁴. (D) MMRN2⁴⁹⁵⁻⁶⁷⁴ and MMRN2⁴⁹⁵⁻⁶⁰³ bind to streptavidin under reducing conditions after biotinylation. (E) Flow cytometry histograms of HEK293T transfected with GFP tagged CTLD group 14 family members and stained with biotinylated MMRN2⁴⁹⁵⁻⁶⁷⁴ (grey line), confirming binding to CLEC14A and CD93 but not thrombomodulin. Streptavidin-PE was used as a control for background binding (grey shaded).
(§2) Whole cell protein lysates were made by incubating with lysis buffer (1% (v/v) NP40, 10 mM Tris pH7.5, 150 mM NaCl and 1 mM EDTA) and pelleting insoluble material. […] The epitope tag of each probed protein was detected with secondary antibody incubation (anti-His or anti-Fc HRP conjugate) and then tertiary anti-mouse HRP for the case of anti-His.

Assay [2] addresses T2, MMRN2^CC-C1q (coiled-coil and C1q domains of human MMRN2, His tag) (human, UniProt Q9H8L6 133-949).
T2 construct: domain: coiled-coil and C1q; HEK293T lysate, blotted under reducing conditions; not shown: C-terminal BirA and His tags of vector pHL-Avitag3
T2 sequence (looked up): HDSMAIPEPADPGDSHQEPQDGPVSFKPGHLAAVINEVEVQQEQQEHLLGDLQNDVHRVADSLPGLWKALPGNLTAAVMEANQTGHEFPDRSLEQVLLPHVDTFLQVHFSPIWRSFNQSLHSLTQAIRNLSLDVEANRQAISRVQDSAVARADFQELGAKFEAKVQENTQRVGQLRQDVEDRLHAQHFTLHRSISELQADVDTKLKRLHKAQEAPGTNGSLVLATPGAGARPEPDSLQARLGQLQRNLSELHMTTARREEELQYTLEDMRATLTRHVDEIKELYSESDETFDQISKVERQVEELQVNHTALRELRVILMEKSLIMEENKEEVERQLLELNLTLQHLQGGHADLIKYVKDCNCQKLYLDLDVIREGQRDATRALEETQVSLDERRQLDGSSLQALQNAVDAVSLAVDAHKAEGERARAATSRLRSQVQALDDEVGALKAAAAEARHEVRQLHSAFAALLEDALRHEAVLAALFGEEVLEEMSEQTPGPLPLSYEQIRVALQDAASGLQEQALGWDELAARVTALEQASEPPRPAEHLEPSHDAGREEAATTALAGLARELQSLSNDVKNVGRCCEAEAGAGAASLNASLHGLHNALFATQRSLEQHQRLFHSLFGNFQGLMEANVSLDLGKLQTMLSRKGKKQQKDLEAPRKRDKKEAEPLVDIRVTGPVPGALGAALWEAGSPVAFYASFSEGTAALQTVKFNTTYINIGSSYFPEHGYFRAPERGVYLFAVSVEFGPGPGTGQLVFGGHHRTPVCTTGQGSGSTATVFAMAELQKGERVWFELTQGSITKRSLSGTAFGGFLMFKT
The assay is described as above.
Description: as §1, §2

B1: CLEC14A-ECD-Fc (human CLEC14A extracellular domain fused to an Fc tag) (Fc fusion)
chain: EHPTADRAGCSASGACYSLHHATMKRQAAEEACILRGGALSTVRAGAELRAVLALLRAGPGPGGGSKDLLFWVALERRRSHCTLENEPLRGFSWLSSDPGGLESDTLQWVEEPQRSCTARRCAVLQATGGVEPAGWKEMRCHLRANGYLCKYQFEVLCPAPRPGAASNLSYRAPFQLHSAALDFSPPGTEVSALCRGQLPISVTCIADEIGARWDKLSGDVLCPCPGRYLRAGKCAELPNCLDDLGGFACECATGFELGKDGRSCVTSGEGQPTLGGTGVPTRRPPATATSPVPQRTWPIRVDEKLGETPLVPEQDNSVTSIPEIPRWGSQSTMSTLQMSLQAESKATITPSGSVISKFNSTTSSATPQAFDSSS
notes: Expressed in HEK293T cells; also called hCLEC14A-ECD-Fc; C14A-Fc; not shown: human IgG Fc tag
Take B1: the binding result in assay [1] and in assay [2] was “binds” in each case.
